Data: patent US20230390340A1

Biological target: ApoE dependent receptors (on bEND.3 mouse endothelial cells) (mouse)
Experiment: cell-based or functional assay

## IDS.ApoEII (human iduronate-2-sulfatase with C-terminal invariant flexible linker and ApoE receptor-binding tandem repeat) (from UniProt P22304 26-550) (enzyme)
  uptake of IDS.ApoEII into bEND.3 cells after 24 hours, following blocking with human recombinant ApoE: 30%
